Legend:
[1] = molecular target: T1, human 5T4 on cells (human, UniProt Q13641 32-420); assay: flow cytometry, HT-29 cells, streptavidin-PE, normalized MFI of 2 pooled experiments
T1 construct: Human 5T4 on transfected cells (CHO-K1, CT26, B16) or endogenous on human tumour lines; the cell line is named under assay; also called trophoblast glycoprotein; TPBG
T1 sequence: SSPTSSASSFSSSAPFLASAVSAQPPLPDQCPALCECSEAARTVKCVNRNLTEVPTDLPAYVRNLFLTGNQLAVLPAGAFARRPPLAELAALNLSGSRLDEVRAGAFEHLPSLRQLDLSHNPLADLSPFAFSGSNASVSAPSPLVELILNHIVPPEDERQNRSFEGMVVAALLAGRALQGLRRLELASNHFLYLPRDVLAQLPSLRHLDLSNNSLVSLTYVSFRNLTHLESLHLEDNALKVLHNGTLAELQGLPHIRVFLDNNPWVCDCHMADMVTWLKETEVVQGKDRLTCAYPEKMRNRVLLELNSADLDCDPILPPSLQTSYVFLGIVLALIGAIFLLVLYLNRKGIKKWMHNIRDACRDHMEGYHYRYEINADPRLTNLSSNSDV
Description: (§1) FACS staining and analysis of 5T4-expressing cell lines: Prior to the FACS staining, all cell lines were characterized for their 5T4 expression levels using a receptor density kit (Quantum Simply Cellular, anti-human IgG, Bangs Laboratories, Inc). Adherent cell lines were cultured according to their supplier's instructions and were harvested from their cell culture flasks using Trypsin/EDTA, counted in R10 medium in a Burker chamber, and diluted in FACS buffer (PBS+0.5% BSA, 0.05% NaN₃) to a concentration of 4×10⁶ cells/mL. 50 μL (0.20×10⁶) of cell solution was added to a 96-well FACS staining plate (Falcon #351190). Cells were incubated for 20 min in 4° C. with 50 μL of the biotinylated ALG.APV-210 (2× final concentration). The antibodies were added in a serial dilution starting at 20 μg/mL titrating down in a 12 step 1/2 dilution down to 0.010 μg/mL. […] Cells were analysed for ALG.APV-210 binding using flow cytometry (FACSVerse) by gating on single cells. MFI values (secondary antibody only subtracted) from 1 out of 2 independent experiments, as well as normalized data and EC₅₀-values of pooled data from 2 experiments were determined and plotted using GraphPad Prism 7, non-linear regression log (agonist) vs. normalized response-variable slope.

[2] = molecular target: T2, human CD137 on cells (human, UniProt Q07011 24-255); assay: flow cytometry, CD3-stimulated primary human CD8 T cells (summary of the study)
T2 construct: Human CD137 on CHO-K1 transfectants, Jurkat/CD137 reporter cells or CD3-stimulated primary human CD8 T cells; cells named under assay; also called 4-1BB; TNFRSF9
T2 sequence (Q07011 24-255 limits assumed): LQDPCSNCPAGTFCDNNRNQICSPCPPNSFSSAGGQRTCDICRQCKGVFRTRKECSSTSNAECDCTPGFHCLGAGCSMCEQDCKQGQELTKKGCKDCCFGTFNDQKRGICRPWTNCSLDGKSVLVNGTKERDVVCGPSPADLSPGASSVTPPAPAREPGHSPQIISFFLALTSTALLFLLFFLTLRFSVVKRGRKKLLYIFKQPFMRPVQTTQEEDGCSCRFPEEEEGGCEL
Description: FACS staining and analysis of CD8 T cells: Following 48 h of incubation with or without CD3, human and cynomolgus PBMC were harvested, pooled, recounted and diluted in FACS buffer (PBS+0.5% BSA, 0.05% NaN₃) to a concentration of 5×10⁶ cells/mL. 50 μL (0.25×10⁶ cells) of cell solution was added to a 96-well FACS staining plate (Falcon #351190). Following 10 min of Fc-blocking in RT using Beriglobin (hIgG, 200 μg/mL), cells were washed in FACS buffer and then incubated for 1 h in 4° C. with 100 μL of the biotinylated ALG.APV-210 or negative control. The antibodies were added in a serial dilution starting either at 5 μg/mL titrating down in a 12 step 1/3 dilution down to 0.0003 μg/mL (exp 1) or 1 μg/mL titrating down in a 12 step 1/2 dilution down to 0.0005 μg/mL (exp 2). […] Cells were analysed for ALG.APV-210 binding using flow cytometry by gating on viable, single cells expressing CD3 and CD8. MFI values (FMO subtracted) from 2 independent experiments as well as normalized pooled data from 2 experiments and EC₅₀-values were determined and plotted using GraphPad Prism 7, non-linear regression log (agonist) vs. normalized response-variable slope, n=6 donors/group.

[3] = molecular target: T1, human 5T4 on cells; assay: flow cytometry, CT26-hu5T4^high cells, streptavidin-PE, normalized MFI of 2 pooled experiments
Description: (§2) Biotinylation: In order to detect ALG.APV-210 binding to 5T4-expressing cell lines, ALG.APV-210 was first biotinylated. The quality of the biotinylated protein and the impact on binding to its targets was assessed using ELISA.
as §1, with “concentration).” for “concentration). The antibodies were added in a serial dilution starting at 20 μg/mL titrating down in a 12 step 1/2 dilution down to 0.010 μg/mL.”

[4] = molecular target: T1, human 5T4 on cells; assay: flow cytometry, B16-hu5T4 cells, streptavidin-PE, normalized MFI of 2 pooled experiments
Description: as §1

[5] = molecular target: T1, human 5T4 on cells; assay: flow cytometry, JAR cells, streptavidin-PE, normalized MFI of 2 pooled experiments
Description: as §2
as §1, with “concentration).” for “concentration). The antibodies were added in a serial dilution starting at 20 μg/mL titrating down in a 12 step 1/2 dilution down to 0.010 μg/mL.”

[6] = molecular target: T3, cynomolgus CD137 on cells (cynomolgus macaque, UniProt A9YYE7 24-254); assay: flow cytometry, cynomolgus CD8 T cells gated from CD3-stimulated PBMC, normalized MFI, 2 pooled experiments
T3 construct: whole, on cells; also called CHO-K1/cynomolgus CD137; cynomolgus monkey CD137
T3 sequence (A9YYE7 entry or part of it): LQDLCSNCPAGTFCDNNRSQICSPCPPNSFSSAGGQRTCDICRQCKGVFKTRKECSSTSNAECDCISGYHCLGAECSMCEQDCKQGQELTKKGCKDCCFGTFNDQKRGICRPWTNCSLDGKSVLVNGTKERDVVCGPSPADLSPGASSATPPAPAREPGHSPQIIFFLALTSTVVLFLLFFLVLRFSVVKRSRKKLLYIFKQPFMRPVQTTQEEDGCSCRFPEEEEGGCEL
Description: Isolation and stimulation of cynomolgus PBMC: Cynomolgus PBMC were isolated from 20 mL of cynomolgus monkey blood from 3 different donors, obtained from Silabe, France by density gradient centrifugation using Lympholyte-mammal (Cedarlane labs) according to manufacturer's instructions. Non-tissue treated 96 well plates were pre-coated overnight at 4° C. with 3 μg/mL α-monkey CD3, clone FN-18 (Invitrogen #APS0301). The cynomolgus PBMC were then stimulated identically as the human PBMC described above
FACS staining and analysis of CD8 T cells: Following 48 h of incubation with or without CD3, human and cynomolgus PBMC were harvested, pooled, recounted and diluted in FACS buffer (PBS+0.5% BSA, 0.05% NaN₃) to a concentration of 5×10⁶ cells/mL. 50 μL (0.25×10⁶ cells) of cell solution was added to a 96-well FACS staining plate (Falcon #351190). […] Cells were analysed for ALG.APV-210 binding using flow cytometry by gating on viable, single cells expressing CD3 and CD8. MFI values (FMO subtracted) from 2 independent experiments as well as normalized pooled data from 2 experiments and EC₅₀-values were determined and plotted using GraphPad Prism 7, non-linear regression log (agonist) vs. normalized response-variable slope, n=6 donors/group.

B1: biotinylated ALG.APV-210 (bispecific antibody)
chain: EVQLLESGGGLVQPGGSLRLSCAASGFTFSHGSMYWVRQAPGKGLEWVSSISSGSGSTYYADSVKGRFTISHDNSKNTLYLQMNSLRAEDTAVYYCARSSYYGSYYSIDYWGQGTLVTVSSGGGGSGGGGSGGGGSGGGGSDIQMTQSPSSLSASVGDRVTITCRASQSISSYLNWYQQKPGKAPKLLIYAASSLQSGVPSRFSGSGSGTDFTLTISSLQPEDFATYYCQQYYDNLPTFGQGTKLEIKEPKSSDKTHTCPPCPAPEAAGAPSVFLFPPKPKDTLMISRTPEVTCVVVDVSHEDPEVKFNWYVDGVEVHNAKTKPREEQYNSTYRVVSVLTVLHQDWLNGKEYKCAVSNKALPAPIEKTISKAKGQPREPQVYTLPPSRDELTKNQVSLTCLVKGFYPSDIAVEWESNGQPENNYKTTPPVLDSDGSFFLYSKLTVDKSRWQQGNVFSCSVMHEALHNHYTQKSLSLSPGSGGGGSGGGGSGGGGSPSEVQLLESGGGLVQPGGSLRLSCAASGFTFSSYAMSWVRQAPGKCLEWVSAISGSGGSTYYADSVKGRFTISRDNSKNTLYLQMNSLRAEDTAVYYCARYYGGYYSAWMDYWGQGTLVTVSSGGGGSGGGGSGGGGSGGGGSDIQMTQSPSSLSASVGDRVTITCRASQSISSFLNWYQQKPGKAPKLLIYAASSLQSGVPSRFSGSGSGTDFTLTISSLQPEDSATYYCQQTYGYLHTFGCGTKLEIKR
modifications: biotinylated (sites not given)
**Q.** How did the EC50 [1] turn out when B1 was run?
**A.** Its EC50 is 12 nM.

**Q.** And the EC50 [2]?
**A.** The EC50 was 0.2 nM.

**Q.** What about the EC50 [3] of the same binder?
**A.** Its EC50 is 20 nM.

**Q.** And the EC50 [4]?
**A.** Its EC50 is 14 nM.

**Q.** What about the EC50 [5] of the same binder?
**A.** Its EC50 is 9 nM.

**Q.** What about the EC50 [6] of the same binder?
**A.** The EC50 was 0.236 nM.

Reference: patent publication US20190382503A1 (published 2019)
